Laboratory results taken from US20250115677A1, “Anti-CEA Antibody Drug Conjugates and Methods of Use” (BeiGene Switzerland GmbH, priority 2022, published 2025).

T1: human CEA on cells (MKN45, LOVO, NCI-H2122, LS174T, CT26/CEA) (human, UniProt P06731 35-685)
T1 sequence: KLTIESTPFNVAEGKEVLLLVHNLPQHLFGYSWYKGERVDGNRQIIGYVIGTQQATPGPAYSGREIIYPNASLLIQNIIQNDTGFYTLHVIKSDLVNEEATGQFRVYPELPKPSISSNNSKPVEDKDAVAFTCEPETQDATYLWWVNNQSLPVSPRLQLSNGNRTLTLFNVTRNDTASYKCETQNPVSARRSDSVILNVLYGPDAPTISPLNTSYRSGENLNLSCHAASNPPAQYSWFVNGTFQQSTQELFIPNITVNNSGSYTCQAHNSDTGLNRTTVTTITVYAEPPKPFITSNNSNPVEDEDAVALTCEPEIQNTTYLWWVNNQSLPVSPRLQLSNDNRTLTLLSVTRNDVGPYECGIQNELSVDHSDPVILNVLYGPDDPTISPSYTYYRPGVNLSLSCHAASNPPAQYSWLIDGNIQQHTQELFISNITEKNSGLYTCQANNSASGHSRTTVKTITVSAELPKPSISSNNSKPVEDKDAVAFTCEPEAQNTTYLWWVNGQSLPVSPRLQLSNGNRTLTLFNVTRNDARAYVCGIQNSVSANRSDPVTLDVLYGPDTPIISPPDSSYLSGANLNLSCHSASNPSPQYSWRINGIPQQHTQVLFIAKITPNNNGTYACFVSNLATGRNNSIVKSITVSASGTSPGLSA

T2: CHIM (Homo sapiens, UniProt P06731, A174T/A211G/A239V/A261S/A267P/C12H/D173N/E253A/E283V/F203L/F272R/F277P/F63I/H123Q/H61N/H9C/I100T/I112V/I113T/I13V/I230T/I80V/INS244IISP/K155N/K214E/L18V/L245P/L62R/N182G/N204S/N246D/N288K/P266S/P287A/Q16K/Q78L/R139H/R17E/R198M/R224N/R250L/R77S/S228P/S280H/T171V/T206K/T210A/T217I/T247S/T276I/V221A/V273I/V291P/V55A/W11L)
T2 construct: CEACAM6 N-terminal part (fusion partner); 6xHis (C); made in house; host or cells: HEK293-based mammalian cell expression system
T2 sequence (P06731 with tags, fused parts or gaps H9C/W11L/C12H/I13V/Q16K/R17E/L18V/V55A/H61N/L62R/F63I/R77S/Q78L/I80V/I100T/I112V/I113T/H123Q/R139H/K155N/T171V/D173N/A174T/N182G/R198M/F203L/N204S/T206K/T210A/A211G/K214E/T217I/V221A/R224N/S228P/I230T/A239V/INS244IISP/L245P/N246D/T247S/R250L/E253A/A261S/P266S/A267P/F272R/V273I/T276I/F277P/S280H/E283V/P287A/N288K/V291P): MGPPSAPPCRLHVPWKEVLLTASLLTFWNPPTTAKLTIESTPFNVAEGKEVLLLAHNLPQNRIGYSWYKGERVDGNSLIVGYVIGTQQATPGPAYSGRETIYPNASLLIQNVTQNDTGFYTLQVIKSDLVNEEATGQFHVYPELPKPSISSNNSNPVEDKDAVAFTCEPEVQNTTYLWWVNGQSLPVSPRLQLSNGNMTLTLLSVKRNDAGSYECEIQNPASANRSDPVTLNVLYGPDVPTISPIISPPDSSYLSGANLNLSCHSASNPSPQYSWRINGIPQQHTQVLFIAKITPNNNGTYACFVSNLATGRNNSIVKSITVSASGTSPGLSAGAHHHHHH

T3: chimeric construct (CHIM) (human)
T3 construct: CEACAM6 AA 1-273 joined to the membrane-peripheral region containing domain B3 of CEA (AA 596-687), C-terminal 6xHis; also called chimeric CEA
T3 chain: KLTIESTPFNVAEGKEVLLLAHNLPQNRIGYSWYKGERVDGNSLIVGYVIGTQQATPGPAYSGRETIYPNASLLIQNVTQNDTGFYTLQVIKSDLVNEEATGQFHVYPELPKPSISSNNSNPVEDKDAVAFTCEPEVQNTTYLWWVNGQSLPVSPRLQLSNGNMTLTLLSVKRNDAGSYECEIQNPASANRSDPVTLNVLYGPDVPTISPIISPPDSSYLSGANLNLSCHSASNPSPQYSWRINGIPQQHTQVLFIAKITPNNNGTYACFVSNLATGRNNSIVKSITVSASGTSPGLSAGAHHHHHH

B1: BGA9962 (antibody, human IgG1, kappa, V domains shown)
VH: QVQLVQSGAEVKKPGASVKVSCKASGYIFTSYYLHWVRQAPGQGLEWIGYINPQTGKTSYAQKFQGRVTMTRDTSTSTVYMELSSLRSEDTAVYYCAREYGNYNYPLDYWGQGTLVTVSS
VL: DIQMTQSPSSLSASVGDRVTITCRASENQYGYLAWYQQKPGKVPKLLIYNYKNLVEGVPSRFSGSGSGTDFTLTISSLQPEDVATYYCQHHLGTPYTFGQGTKVEIKR
modifications: linker-payload conjugated after reduction of the antibody, DAR 8 (structure only as a drawing in Table 18)
B2: BGA2490 (antibody, human IgG1, kappa, V domains shown)
VH: QVQLVQSGAEVKKPGASVKVSCKASGYIFTSYYLHWVRQAPGQGLEWIGYINPQTGKTSYAQKFQGRVTMTRDTSTSTVYMELSSLRSEDTAVYYCAREYGNYNYPLDYWGQGTLVTVSS
VL: DIQMTQSPSSLSASVGDRVTITCRASENQYGYLAWYQQKPGKVPKLLIYNYKNLVEGVPSRFSGSGSGTDFTLTISSLQPEDVATYYCQHHLGTPYTFGQGTKVEIKR
modifications: linker-payload conjugated after reduction of the antibody, DAR 8 profile (structure only as a drawing in Table 18)
B3: BGA0084 (antibody, human IgG1, kappa, V domains shown)
VH: QVQLVQSGAEVKKPGASVKVSCKASGYIFTSYYLHWVRQAPGQGLEWIGYINPQTGKTSYAQKFQGRVTMTRDTSTSTVYMELSSLRSEDTAVYYCAREYGNYNYPLDYWGQGTLVTVSS
VL: DIQMTQSPSSLSASVGDRVTITCRASENQYGYLAWYQQKPGKVPKLLIYNYKNLVEGVPSRFSGSGSGTDFTLTISSLQPEDVATYYCQHHLGTPYTFGQGTKVEIKR
modifications: linker-payload conjugated after reduction of the antibody, DAR 8 profile (structure only as a drawing in Table 18)
B4: BGA7413 (antibody, human IgG1, kappa, V domains shown)
VH: QVQLVQSGAEVKKPGASVKVSCKASGYIFTSYYLHWVRQAPGQGLEWIGYINPQTGKTSYAQKFQGRVTMTRDTSTSTVYMELSSLRSEDTAVYYCAREYGNYNYPLDYWGQGTLVTVSS
VL: DIQMTQSPSSLSASVGDRVTITCRASENQYGYLAWYQQKPGKVPKLLIYNYKNLVEGVPSRFSGSGSGTDFTLTISSLQPEDVATYYCQHHLGTPYTFGQGTKVEIKR
modifications: linker-payload conjugated after reduction of the antibody, DAR 8 profile (structure only as a drawing in Table 18)
B5: BGA2588 (BGA5384 conjugated with DXD) (antibody, human IgG1, kappa, V domains shown)
VH: QVQLVQSGAEVKKPGASVKVSCKASGYIFTSYYLHWVRQAPGQGLEWIGYINPQTGKTSYAQKFQGRVTMTRDTSTSTVYMELSSLRSEDTAVYYCAREYGNYNYPLDYWGQGTLVTVSS
VL: DIQMTQSPSSLSASVGDRVTITCRASENQYGYLAWYQQKPGKVPKLLIYNYKNLVEGVPSRFSGSGSGTDFTLTISSLQPEDVATYYCQHHLGTPYTFGQGTKVEIKR
modifications: DXD linker-payload conjugated after reduction of the antibody, DAR 8 profile (structure only as a drawing in Table 18)
B6: BGA8357 (antibody, human IgG1, kappa, V domains shown)
VH: QVQLVQSGAEVKKPGASVKVSCKASGYIFTSYYLHWVRQAPGQGLEWIGYINPQTGKTSYAQKFQGRVTMTRDTSTSTVYMELSSLRSEDTAVYYCAREYGNYNYPLDYWGQGTLVTVSS
VL: DIQMTQSPSSLSASVGDRVTITCRASENQYGYLAWYQQKPGKVPKLLIYNYKNLVEGVPSRFSGSGSGTDFTLTISSLQPEDVATYYCQHHLGTPYTFGQGTKVEIKR
modifications: linker-payload conjugated after reduction of the antibody, DAR 8 profile (structure only as a drawing in Table 18)
B7: BGA8179 (antibody, human IgG1, V domains shown)
VH: QVQLVQSGAEVKKPGASVKVSCKASGYIFTSYYLHWVRQAPGQGLEWIGYINPQTGYTSYAQKFQGRVTMTRDTSTSTVYMELSSLRSEDTAVYYCAREYGNYNYPLDYWGQGTLVTVSS
VL: DIQMTQSPSSLSASVGDRVTITCRASENQYGYLAWYQQKPGKVPKLLIYNTKNLVEGVPSRFSGSGSGTDFTLTISSLQPEDVATYYCQHHLGTPYTFGQGTKVEIK
notes: Built on the BGA7592-1F-ph-M (BGA2433) template; human IgG1/kappa
B8: BGA2107 (antibody, human IgG1, V domains shown)
VH: QVQLVQSGAEVKKPGASVKVSCKASGYIFTSYWLHWVRQAPGQGLEWIGYINPNTGYTSYAQKFQGRVTMTRDTSTSTVYMELSSLRSEDTAVYYCAREYGNYNYPLDYWGQGTLVTVSS
VL: DIQMTQSPSSLSASVGDRVTITCRASENQYGYLAWYQQKPGKVPKLLIYNTKNLVEGVPSRFSGSGSGTDFTLTISSLQPEDVATYYCQHHLGTPYTFGQGTKVEIK
notes: as for B7
B9: BGA0089 (antibody, human IgG1, V domains shown)
VH: QVQLVQSGAEVKKPGASVKVSCKASGYIFTSYWLHWVRQAPGQGLEWIGYINPQTGYTNYAQKFQGRVTMTRDTSTSTVYMELSSLRSEDTAVYYCAREYGNYNYPLDYWGQGTLVTVSS
VL: DIQMTQSPSSLSASVGDRVTITCRASENQYGYLAWYQQKPGKVPKLLIYNTKNLVEGVPSRFSGSGSGTDFTLTISSLQPEDVATYYCQHHLGTPYTFGQGTKVEIK
notes: as for B7

Tests used:
[1] = molecular target: T1, human CEA on cells (MKN45, LOVO, …); test: cell-based or functional assay
[2] = molecular target: T1, human CEA on cells (MKN45, LOVO, …); test: cell-based or functional assay; remark: listed apart in the source
[3] = molecular target: T1, human CEA on cells (MKN45, LOVO, …); test: cell-based or functional assay; remark: listed apart in the source
[4] = molecular target: T2, CHIM; test: SPR affinity comparison of affinity matured humanized BGA7592 variants on CHIM; type: binding; settings: for Ka / Rmax: Table 11, SPR to CHIM
[5] = molecular target: T3, chimeric construct (CHIM); test: SPR; binding to CHIM

Molecule	EC50, cell killing of LS174T cells [1]	Emax, cell killing of LS174T cells [1]	EC50, cell killing of MKN45 cells [2]	Emax, cell killing of MKN45 cells [2]	EC50, cell killing of NCI-H2122 cells [3]	Emax, cell killing of NCI-H2122 cells [3]	binding activities compared to BGA7592-1F-ph-F (BGA9521) [4]	Ka [4]	Rmax [4]	Kd [5]	koff [5]	kon [5]
B1	0.83 nM	66.7	0.39 nM	87.1	0.17 nM	80						
B2	0.76 nM	70.3	0.44 nM	89	0.19 nM	82.8						
B3	0.85 nM	69.9	0.38 nM	88.8	0.19 nM	83.8						
B4	0.88 nM	66.9	0.46 nM	87.2		81.5						
B5	1.12 nM	69.7	0.46 nM	85	0.22 nM	74						
B6	0.67 nM	71.8	0.38 nM	89.1	0.14 nM	83.9						
B7							improved binding activities	19900 M⁻¹ s⁻¹	129.1 RU	14.2 nM	0.000282 s⁻¹	19900 M⁻¹ s⁻¹
B8							improved binding activities	19800 M⁻¹ s⁻¹	71.1 RU	19.2 nM	0.00038 s⁻¹	19800 M⁻¹ s⁻¹
B9							improved binding activities	18400 M⁻¹ s⁻¹	59.4 RU	21.5 nM	0.000394 s⁻¹	18400 M⁻¹ s⁻¹
